PMC6089408

Target: Arabidopsis thaliana HAPLESS 2 ectodomain (AtHAP2e; aa 25-494) (Arabidopsis thaliana) (UniProt F4JP36)
Assay: crystal structure; AtHAP2e set to crystallize as a monomer; hanging drop, 293 K, 100 mM sodium citrate pH 4.5, 200 mM zinc acetate; space group P6_(3)

## Arabidopsis thaliana HAPLESS 2 ectodomain (AtHAP2e; aa 25-494) (from UniProt F4JP36 25-494) (domain or fragment)
  stoichiometry N: 3
